Results reported in patent US20250154494A1, “Microfluidic Co-Encapsulation Device and System and Methods for Identifying T-Cell Receptor Ligands” (JANSSEN BIOTECH, INC., priority 2021, published 2025).

Columns and labels:
Jurkat T cells = assay: Bulk plate co-culture of TCR-expressing Jurkat T cells with B cells presenting cognate peptide, CD69 surface expression; format: cell-based; details: Ca^2+ in equimolar concentration to EDTA in the medium
Jurkat cells = assay: Droplet co-culture of B and T cells, CD69 surface expression by flow cytometry; format: cell-based; details: 8 mM Ca^2+ in T cell suspension, 2 mM EDTA in B cell suspension
Protocol: One day prior to encapsulation, BOLETH cells were cultured in the presence of cognate or negative control peptides at a final concentration of 1 μM. Cells were collected the next day, centrifuged at 300 g for 5 min, then resuspended in B-cell medium at a final concentration of 1.4×10^7 cells/ml. These were further supplemented with same peptide and with or without EDTA. TCR-expressing Jurkat cells were centrifuged at 300 g and resuspended in B-cell medium at a concentration of 4×10^7 cells/ml. These were then further supplemented with respective concentrations of calcium. BOLETH, Jurkat, and detergent-containing fractions were connected to the microfluidic chip as described. Pressures were applied using an OB1 MK3+ and the droplet emulsion was collected into a 1.5 ml reaction tube containing oil.
Droplets were incubated at 37° C. in a 5% CO2 humidified incubator. Following overnight incubation, droplet emulsions were disrupted by adding two volumes of Pico-Break 1 (SPHERE FLUIDICS). Tubes were quickly inverted several times and centrifuged for 15 s at 300 rpm to facilitate separation of the cell-containing fraction. […] Tubes were centrifuged for 5 min at 300 g and cell pellets were subsequently resuspended in 100 μl of FACS buffer and were analyzed via flow cytometry. […]

CD19 on BOLETH cells [1] = target: T1, CD19 on BOLETH cells (UniProt P15391 20-556, limits assumed); assay: flow cytometry; BOLETH cells stained with supernatant of HEK cells transfected with tandem (T2A) constructs, anti-HA antibody
T1 construct: whole, on cells; also called B cell-specific transmembrane protein CD19
T1 sequence (looked up): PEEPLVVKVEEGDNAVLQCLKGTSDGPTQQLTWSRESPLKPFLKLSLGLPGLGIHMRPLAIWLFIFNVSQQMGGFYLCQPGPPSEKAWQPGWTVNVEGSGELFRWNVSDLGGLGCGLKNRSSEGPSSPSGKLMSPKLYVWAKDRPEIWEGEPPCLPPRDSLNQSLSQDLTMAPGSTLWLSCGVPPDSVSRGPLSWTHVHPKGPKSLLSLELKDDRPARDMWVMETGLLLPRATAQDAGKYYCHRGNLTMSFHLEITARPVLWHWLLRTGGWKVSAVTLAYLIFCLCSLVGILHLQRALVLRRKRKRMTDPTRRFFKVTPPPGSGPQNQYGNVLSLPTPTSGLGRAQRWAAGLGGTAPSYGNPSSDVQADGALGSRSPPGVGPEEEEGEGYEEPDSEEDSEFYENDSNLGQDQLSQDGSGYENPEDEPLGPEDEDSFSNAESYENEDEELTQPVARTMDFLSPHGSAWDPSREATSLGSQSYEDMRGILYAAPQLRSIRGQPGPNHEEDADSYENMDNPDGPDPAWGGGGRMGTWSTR

CD19 on BOLETH cells [2] = target: T1, CD19 on BOLETH cells; assay: flow cytometry; scFv secreted by Jurkat TT2 reporter cells in co-culture with BOLETH cells, 0.1 nM-10 µM cognate peptide
BOLETH cells = assay: Co-culture of Jurkat TT2 scFv reporter cells with BOLETH cells in presence of cognate peptide, flow cytometry; format: cell-based; details: 0.1 nM-10 μM cognate peptide; versus V5-tagged αCD20-scFv
TCR signaling [3] = assay: Co-culture of SKW-3 cells expressing sleeping beauty transposon reporters with peptide-loaded B cells (GFP / HA reporter); format: cell-based; details: 1 μM peptide
Protocol: (§1) Sleeping beauty transposon reporter constructs were transfected together with transposases into T cells, 5 to 1 ratio, using the Neon transfection system following the manufacturer's protocol. The voltages used for Jurkat cells were 1350V/[…]/3 pulse, and for SKW-3 cells 1500V, […] and 1 pulse were used as settings. 48-72 hours after transfection, the cells were selected using […] Blasticidin for Jurkat and […] Blasticidin for SKW-3 cells.
(§2) Co-culture experiments were performed using round-bottom 96-well plates. P10-NBV Jurkat and SKW-3 reporter cells and B cells were seeded at a 1:1 ratio into each well. For peptide co-culture experiments, either cognate peptide or mismatched peptide is added to each well and incubated for 16 hours. For minigene-based co-culture experiments, minigene-transduced B cells harboring either the cognate of mismatch minigenes were used. Next day the cells are spun down and stained for Flow cytometry.

TCR signaling [4] = assay: Co-culture of Jurkat reporter cells carrying synthetic promoters with peptide-loaded B cells (GFP / HA reporter); format: cell-based
Protocol: as §1, §2

Molecule: [Ca+2] [Ca^2+]
- T cell activation measured by surface expression of CD69 (Jurkat T cells): fully restores T cell activation
- T cell activation measured by CD69 surface expression in droplets (Jurkat cells): rescues Ca^2+ dependent T cell activation

B1: αCD19-scFv (clone B43), VH-VL, tagged with six HA epitope tags at its C-terminus (scFv)
scFv: EVQLVQSGAEVKKPGSSVKVSCKASGYAFSSYWMNWVRQAPGQGLEWMGQIWPGDSDTNYAQKFQGRVTITADESTSTAYMELSSLRSEDTAVYYCARRETTTVGRYYYAMDYWGQGTTVTVSSGGGGSGGGGSGGGGSDIQLTQSPSFLSASVGDRVTITCKASQSVDYSGDSYLNWYQQKPGKAPKLLIYDASNLVSGVPSRFSGSGSGTEFTLTISSLQPEDFATYYCQQSTENPWTFGGGTKLEIKGAGSYPYDVPDYAGAGSYPYDVPDYAGGSYPYDVPDYAGGAGSYPYDVPDYAGAGSYPYDVPDYAGAGSYPYDVPDYAG
notes: also called αCD19-HA; B43-HA
- binding result (CD19 on BOLETH cells [1]): binds

B2: αCD19-scFv (clone B43), four-times V5-tagged (scFv)
scFv: EVQLVQSGAEVKKPGSSVKVSCKASGYAFSSYWMNWVRQAPGQGLEWMGQIWPGDSDTNYAQKFQGRVTITADESTSTAYMELSSLRSEDTAVYYCARRETTTVGRYYYAMDYWGQGTTVTVSSGGGGSGGGGSGGGGSDIQLTQSPSFLSASVGDRVTITCKASQSVDYSGDSYLNWYQQKPGKAPKLLIYDASNLVSGVPSRFSGSGSGTEFTLTISSLQPEDFATYYCQQSTENPWTFGGGTKLEIKGKPIPNPLLGLDSTGAGSGGKPIPNPLLGLDSTGAGSGGKPIPNPLLGLDSTGGAGSGGKPIPNPLLGLDSTGSGAGGSSL
notes: also called αCD19-scFv V5-tagged
- fold reduction in MFI compared to V5-tagged αCD20-scFv (VLVH) (CD19 on BOLETH cells [2]): ~5 fold

B3: αCD19-scFv V5-tagged: αCD19 scFv (clone B43) with four-times V5 tag (protein)
scFv: EVQLVQSGAEVKKPGSSVKVSCKASGYAFSSYWMNWVRQAPGQGLEWMGQIWPGDSDTNYAQKFQGRVTITADESTSTAYMELSSLRSEDTAVYYCARRETTTVGRYYYAMDYWGQGTTVTVSSGGGGSGGGGSGGGGSDIQLTQSPSFLSASVGDRVTITCKASQSVDYSGDSYLNWYQQKPGKAPKLLIYDASNLVSGVPSRFSGSGSGTEFTLTISSLQPEDFATYYCQQSTENPWTFGGGTKLEIKGKPIPNPLLGLDSTGAGSGGKPIPNPLLGLDSTGAGSGGKPIPNPLLGLDSTGGAGSGGKPIPNPLLGLDSTGSGAGGSSL
- reduction in MFI (BOLETH cells): about 5 fold

B4: NBV promoter: synthetic TCR responsive promoter, SEQ ID NO:50 (nucleic acid)
DNA: GAATTCAAGTACCGTGCAGGAGGAAAAACTGTTTCATACAGAAGGCGTGGGCTATGCAAATCGAAACGCTGGAAACACTGAGTAATCAGATCAAGTCATGTTTCCATTTGAATGCAAATGGATACAGAAGGCGTGGAGGAAAAACTGTTTCCTGTTCCAATAGACGCCCTTTTTGAATGCAAATGGCGAGCTCATGGGTTTCTCCACCAAGGTGACGAGTGGAAAATCTGACTCAGAATTATCCCTTGTTATGCAAATCGCCCAAAGAGGAAAATTTGTTTCATAGAACATACTGTCTCAAATAGACGCCTCCTCGAGCGTTTCCCGGGGTACC
- HA and GFP fluorescence intensities with 2 copies of promoter instead of 1 (TCR signaling [3]): doubled
- GFP and HA reporter gene expression in sleeping beauty constructs (TCR signaling [4]; sleeping beauty constructs): high GFP and HA reporter gene expression
- GFP and HA median intensity compared to NFAT promoters (TCR signaling [4]; sleeping beauty transposon reporters in Jurkat cells, 1 μM peptide): best signal
- intensity of HA and GFP signals compared to 4×NFAT (TCR signaling [4]; sleeping beauty transposon system, different concentrations of cognate peptide): higher intensity of both HA and GFP signals
